B1: Colicin-A (Citrobacter freundii), P04480 (parent)
chain: MPGFNYGGKGDGTGWSSERGSGPEPGGGSHGNSGGHDRGDSSNVGNESVTVMKPGDSYNTPWGKVIINAAGQPTMNGTVMTADNSSMVPYGRGFTRVLNSLVNNPVSPAGQNGGKSPVQTAVENYLMVQSGNLPPGYWLSNGKVMTEVREERTSGGGGKNGNERTWTVKVPREVPQLTASYNEGMRIRQEAADRARAEANARALAEEEARAIASGKSKAEFDAGKRVEAAQAAINTAQLNVNNLSGAVSAANQVITQKQAEMTPLKNELAAANQRVQETLKFINDPIRSRIHFNMRSGLIRAQHNVDTKQNEINAAVANRDALNSQLSQANNILQNARNEKSAADAALSAATAQRLQAEAALRAAAEAAEKARQRQAEEAERQRQAMEVAEKAKDERELLEKTSELIAGMGDKIGEHLGDKYKAIAKDIADNIKNFQGKTIRSFDDAMASLNKITANPAMKINKADRDALVNAWKHVDAQDMANKLGNLSKAFKVADVVMKVEKVREKSIEGYETGNWGPLMLEVESWVLSGIASSVALGIFSATLGAYALSLGVPAIAVGIAGILLAAVVGALIDDKFADALNNEIIRPAH
partner: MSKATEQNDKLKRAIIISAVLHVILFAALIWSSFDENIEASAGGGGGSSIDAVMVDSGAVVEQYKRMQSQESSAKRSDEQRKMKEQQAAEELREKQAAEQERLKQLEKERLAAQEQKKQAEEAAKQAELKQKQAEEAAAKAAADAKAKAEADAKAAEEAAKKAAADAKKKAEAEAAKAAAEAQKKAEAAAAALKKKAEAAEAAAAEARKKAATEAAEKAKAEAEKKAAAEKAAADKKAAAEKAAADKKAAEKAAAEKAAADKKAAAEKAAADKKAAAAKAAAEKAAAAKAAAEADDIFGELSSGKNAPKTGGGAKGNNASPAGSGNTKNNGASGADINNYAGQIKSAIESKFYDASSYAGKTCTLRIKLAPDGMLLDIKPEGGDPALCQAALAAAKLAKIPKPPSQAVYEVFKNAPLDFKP

Variants of: B1
Conditions: with tola_ecoli tolA

Variant | effect of a mutation on the interaction
Y58A | disrupting interaction

Source: IntAct's records for PubMed 22493500
